The target of this experiment is F-actin (polymerised rabbit skeletal muscle actin) (rabbit) (UniProt P68135). Kind of experiment: co-sedimentation.

In general, Kd refers to a measure of binding affinity in units of concentration. “GST-ΔFok fusion protein (c-Abl type IV amino acids 1015-1142 fused to GST) (domain or fragment)” yielded an equilibrium dissociation constant (Kd) of 18 µM.

Values taken from publication PMC2119935.
